A short description of data set [1]: folding stability dG unfold from trypsin proteolysis; higher = more stable. The gist of the method: (§1)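 Designed mini-proteins with no cysteine and under 80 residues were kept only if AlphaFold2 dimer inter-PAE was above 15. In a PA-tagged cDNA display construct, they were digested with trypsin and chymotrypsin and then sequenced. K50 was inferred by Bayesian fitting of counts, and unfolding free energy was derived per protease or combined against a sequence-predicted unfolded-state K50 and a shared folded-state K50.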

Data set [2] in a line: folding stability dG unfold from chymotrypsin proteolysis; higher = more stable. The essentials: as §1
A short description of data set [3]: folding stability dG unfold (combined trypsin and chymotrypsin); higher = more stable. The gist of the method:
as §1

These results are taken from the supplement of paper PMC12764529.

± gives the half width of the 95% confidence interval.

For “SAGGSAGGSAGGMTLEELKNLKPGEEVEIEIEVYDKNGKKVSKYRIRIYNDKIEIEKLPSAGGSAGGSAGGS [r10_394_TrROS_Hall]”, the “folding stability dG unfold” value stood at 2.4 ± 0.057 kcal/mol in data set [1], 2.991 ± 0.026 kcal/mol in data set [2] and 2.71 ± 0.092 kcal/mol in data set [3].
The corresponding values for “SAGGSAGGSAGGMTLEIEINGLKVRIEFDEETKELRIEVEPAPPPVVVYEKEKLEEEEESAGGSAGGSAGGS [r10_724_TrROS_Hall]” are 1.56 ± 0.078 kcal/mol, 1.52 ± 0.05 kcal/mol and 1.46 ± 0.18 kcal/mol.
Taken in the same sequence, the figures for “SAGGSAGGSAGGMTPEEKIEALIKATPPLTVKTSGPGVSYEVEDLEKLKKLNVTISSVLGSAGGSAGGSAGG [r7_504_JUSTAS]” were -1.3 ± 0.67 kcal/mol, -0.683 ± 0.24 kcal/mol and -0.637 ± 0.22 kcal/mol.
Consider “SAGGSAGGSAGGMTQEVTLEPLPDGTVKLLSVEAPESTVTVPVKLPGGGEEVRTLPPEALSAGGSAGGSAGG [r7_829_JUSTAS]”, for which the “folding stability dG unfold” value in data set [1] was -0.0201 ± 0.045 kcal/mol; in data set [2] it was -0.255 ± 0.15 kcal/mol; in data set [3], -0.131 ± 0.16 kcal/mol.
The corresponding values for “SAGGSAGGSAGGMTVERREVFPLGESLVITETREVLDPSSDVPVTVETRVEVLPPEVPPSAGGSAGGSAGGS [r10_599_JUSTAS]” are -1.32 ± 0.74 kcal/mol, 0.25 ± 0.12 kcal/mol and 0.033 ± 0.18 kcal/mol.
On to “SAGGSAGGSAGGMTVLETEVTTLPNGVVKTTTLYKDPSTGALHTVTEEVYVPLGETALLSAGGSAGGSAGGS [r10_72_JUSTAS]”, for which the “folding stability dG unfold” value in data set [1] stood at 0.716 ± 0.022 kcal/mol; in data set [2], 0.15 ± 0.15 kcal/mol; in data set [3], 0.523 ± 0.11 kcal/mol.
The corresponding values for “SAGGSAGGSAGGMTYVTVTLKEGDTEVTLTFPLEKLPEVVPEPGIEILEVETSPLDPELLSAGGSAGGSAGG [r17_204_JUSTAS]” are 1.34 ± 0.081 kcal/mol, 0.737 ± 0.14 kcal/mol and 1.05 ± 0.12 kcal/mol.
Regarding “SAGGSAGGSAGGMVETGTPSSGSSSPSYVLTTTTLTLLDGTFVPTTTTTTFSDPAEAAAASAGGSAGGSAGG [r7_896_JUSTAS]”, the “folding stability dG unfold” value in data set [1] was 1.52 ± 0.082 kcal/mol; in data set [2], 0.411 ± 0.077 kcal/mol; in data set [3] it was 1.14 ± 0.086 kcal/mol.
Taken in the same sequence, the figures for “SAGGSAGGSAGGMVIERPLPNGEPLLVELGRPASAPARVTVPNPGRPLGTITSLEELEERSAGGSAGGSAGG [r7_72_TrMRF]” were -0.207 ± 0.11 kcal/mol, 0.565 ± 0.03 kcal/mol and 0.332 ± 0.13 kcal/mol.
As to “SAGGSAGGSAGGMVTATVTEYQPGEGLLTVKPPDGSTITIAVPPSVSYEELKNTTIDLSLSAGGSAGGSAGG [r7_296_JUSTAS]”, the “folding stability dG unfold” value in data set [1] was determined as 1.09 ± 0.036 kcal/mol; in data set [2], 0.021 ± 0.072 kcal/mol; in data set [3], 0.714 ± 0.066 kcal/mol.
For “SAGGSAGGSAGGMVTTKTVVTFDPSGYITTTETIKVVGTDELLTKTSVTPVEPVPPLLSSAGGSAGGSAGGS [r10_928_JUSTAS]”, the results for the “folding stability dG unfold” value in data set [1], in data set [2] and in data set [3] were -0.179 ± 0.2 kcal/mol, 1.18 ± 0.026 kcal/mol and 0.828 ± 0.1 kcal/mol, respectively.
For the sequence “SAGGSAGGSAGGMVTVETAPAPEGTERVIRVTFLEVNPEDGTIVRPATLTFVVPPGDPLSAGGSAGGSAGGS [r10_86_TrMRF]”, the “folding stability dG unfold” value in data set [1] is 0.397 ± 0.066 kcal/mol; in data set [2], 0.876 ± 0.083 kcal/mol; in data set [3] it was 0.686 ± 0.062 kcal/mol.
The corresponding values for “SAGGSAGGSAGGMVVEVVELPDGQLVVRAGPVGYAVVFNGEEVTLFELPPDAEVELLPFSAGGSAGGSAGGS [r10_637_TrMRF]” are 1.1 ± 0.032 kcal/mol, 1.55 ± 0.089 kcal/mol and 1.36 ± 0.098 kcal/mol.
As to “SAGGSAGGSAGGMVVLKTPERFVVVESVEVYVPVRDPDGTPVRWSPVRTEVRVTVIPPLASAGGSAGGSAGG [r7_3_JUSTAS]”, the results for the “folding stability dG unfold” value in data set [1], in data set [2] and in data set [3] were 1.34 ± 0.038 kcal/mol, 2.13 ± 0.057 kcal/mol and 1.86 ± 0.058 kcal/mol, respectively.
Take “SAGGSAGGSAGGMVYFPESLKEEVIEELKKKGYKIKSIEKIEGGYIRITTPKNPIEIKLLSAGGSAGGSAGG [r17_379_JUSTAS]”: the “folding stability dG unfold” value in data set [1] came out at 0.443 ± 0.084 kcal/mol; in data set [2] it was 0.786 ± 0.25 kcal/mol; in data set [3], 0.8 ± 0.17 kcal/mol.
For “SAGGSAGGSAGGMWYIRITYDNGREIWIPIGDPITIKHKDGKPVQIKEVEVYPLPPGQISAGGSAGGSAGGS [r10_20_TrROS]”, the “folding stability dG unfold” value in data set [1] is 2.04 ± 0.064 kcal/mol; in data set [2], 2.72 ± 0.032 kcal/mol; in data set [3] it was 2.58 ± 0.11 kcal/mol.
As for “SAGGSAGGSAGGMYYAIITNKNGKKKIIKFKSLEEMEEAAKKNNIKIEIIPKEELEKLLSAGGSAGGSAGGS [r10_66_TrROS_Hall]”, the “folding stability dG unfold” value in data set [1] was 3.56 ± 0.11 kcal/mol; in data set [2], 3.64 ± 0.043 kcal/mol; in data set [3] it was 3.65 ± 0.069 kcal/mol.
Turning to “SAGGSAGGSAGGNPPDWKPVGEEEFPIPNPNGMQIKISVWTIRAPDDGKSASFIDIEMYPSAGGSAGGSAGG [r7_546_TrROS]”, the results for the “folding stability dG unfold” value in data set [1], in data set [2] and in data set [3] were 1.19 ± 0.07 kcal/mol, 1.87 ± 0.072 kcal/mol and 1.58 ± 0.32 kcal/mol, respectively.
Turning to “SAGGSAGGSAGGNWVTIWIPFKMTHYRPDPDGKMYPHKHEMPRPITIPPGQATEDALDKISAGGSAGGSAGG [r7_777_TrROS]”, the “folding stability dG unfold” value is 0.165 ± 0.12 kcal/mol in data set [1], 0.762 ± 0.14 kcal/mol in data set [2] and 0.595 ± 0.11 kcal/mol in data set [3].
In the case of “SAGGSAGGSAGGNYVVRIEHNGQPIMEQPFPGSLEDAKDYVKEIAQFFPPDKVKIEVYKFSAGGSAGGSAGG [r7_81_TrROS]”, the “folding stability dG unfold” value in data set [1] is -0.0528 ± 0.057 kcal/mol; in data set [2], 0.458 ± 0.19 kcal/mol; in data set [3], 0.292 ± 0.095 kcal/mol.
Consider “SAGGSAGGSAGGPDFKIEPVEKKGNYELYKAYIPETGEEFFLVYYPNPKEVKIYPSDYLSAGGSAGGSAGGS [r10_172_TrMRF]”, for which the figures for the “folding stability dG unfold” value in data set [1], in data set [2] and in data set [3] were 0.754 ± 0.038 kcal/mol, 1.52 ± 0.034 kcal/mol and 1.29 ± 0.049 kcal/mol, respectively.
As for “SAGGSAGGSAGGPEVEVFYERGPDGPLKVVVVVRNPDTPEVTVLVADLEPEKALEFLEALSAGGSAGGSAGG [r7_105_TrMRF]”, the “folding stability dG unfold” value in data set [1] is 2 ± 0.14 kcal/mol; in data set [2] it was 1.86 ± 0.084 kcal/mol; in data set [3], 1.89 ± 0.18 kcal/mol.
Regarding “SAGGSAGGSAGGPEVTITLPPPEKVKVEIVEIEVEGGKVRIRVRNENGEELTFTVPLEDLSAGGSAGGSAGG [r7_829_TrROS_Hall]”, the figures for the “folding stability dG unfold” value in data set [1], in data set [2] and in data set [3] were 0.667 ± 0.18 kcal/mol, 1.59 ± 0.35 kcal/mol and 1.51 ± 0.26 kcal/mol, respectively.
Regarding “SAGGSAGGSAGGPFPFKIDSVEWETTDNKRYYEIKLEFPNGNPVTIHMPPNNPDDVKDAISAGGSAGGSAGG [r7_365_TrROS]”, the “folding stability dG unfold” value in data set [1] was 0.232 ± 0.071 kcal/mol; in data set [2], -0.00838 ± 0.25 kcal/mol; in data set [3] it was 0.144 ± 0.2 kcal/mol.
Take “SAGGSAGGSAGGPGWRTIEFWIPVDDFLDEIKLPPGITPIRIIKPNPNGYVRIMIIYPYSAGGSAGGSAGGS [r10_352_TrROS]”: the “folding stability dG unfold” value in data set [1] stood at 2.53 ± 0.1 kcal/mol; in data set [2] it was 3.05 ± 0.059 kcal/mol; in data set [3], 2.89 ± 0.14 kcal/mol.
With “SAGGSAGGSAGGPITSIDTSGPVITVTATTPGGSVTMDVPPDLTLEEVEALLKANPELLNSAGGSAGGSAGG [r7_373_JUSTAS]”, the “folding stability dG unfold” value is 1.41 ± 0.072 kcal/mol in data set [1], -0.265 ± 0.12 kcal/mol in data set [2] and 0.788 ± 0.087 kcal/mol in data set [3].
Taken in the same sequence, the figures for “SAGGSAGGSAGGPKGYFRIRIEIPNGQKREIWFPPDDAEEWVKSLGIPEENVKITKIEPYSAGGSAGGSAGG [r7_211_TrROS]” were 0.506 ± 0.15 kcal/mol, 0.874 ± 0.27 kcal/mol and 0.868 ± 0.18 kcal/mol.
Take “SAGGSAGGSAGGPKIEVNEDGTVTITLEVDGKLVTKTVKVELEAPPVETVEFVKEGEEVSAGGSAGGSAGGS [r10_240_TrROS_Hall]”: the “folding stability dG unfold” value in data set [1] is 0.822 ± 0.043 kcal/mol; in data set [2], 1.21 ± 0.046 kcal/mol; in data set [3], 1.02 ± 0.077 kcal/mol.
“SAGGSAGGSAGGPKVEVTVKGKPATVEWFPEEGKARVTVPDGRVYVLDLNGDKLEIKPLSAGGSAGGSAGGS [r10_724_TrMRF]”: the figures for the “folding stability dG unfold” value in data set [1], in data set [2] and in data set [3] were 0.258 ± 0.041 kcal/mol, 0.588 ± 0.13 kcal/mol and 0.512 ± 0.1 kcal/mol, respectively.
The corresponding values for “SAGGSAGGSAGGPKVIEITNKDGSTFRLVEVDGELYLYNEKTGKVVKLPPGAKITIKKPSAGGSAGGSAGGS [r10_637_TrROS_Hall]” are 1.39 ± 0.033 kcal/mol, 2.65 ± 0.031 kcal/mol and 2.34 ± 0.059 kcal/mol.
For the sequence “SAGGSAGGSAGGPLKEAVEAAVASGAPEAEYLLVTPEGELRVTVKVYPEEGKVEVEVSPLSAGGSAGGSAGG [r17_475_TrMRF]”, the “folding stability dG unfold” value was determined as 0.903 ± 0.018 kcal/mol in data set [1], 0.0794 ± 0.063 kcal/mol in data set [2] and 0.555 ± 0.037 kcal/mol in data set [3].
In the case of “SAGGSAGGSAGGPLKLKVKLKLEFEVKDENGKTSKVELEVELEVELPEIVLDKNGKLLLSAGGSAGGSAGGS [r10_168_TrROS_Hall]”, the figures for the “folding stability dG unfold” value in data set [1], in data set [2] and in data set [3] were 2.42 ± 0.091 kcal/mol, 3.39 ± 0.26 kcal/mol and 2.95 ± 0.32 kcal/mol, respectively.
Turning to “SAGGSAGGSAGGPMEPIELTFMIPHPNGHPIVAKTEIWRMKNGFFIKPEIYNPDGNPIPSAGGSAGGSAGGS [r10_1056_TrROS]”, the “folding stability dG unfold” value in data set [1] is -0.153 ± 0.25 kcal/mol; in data set [2], -0.377 ± 0.3 kcal/mol; in data set [3] it was -0.207 ± 0.18 kcal/mol.
Regarding “SAGGSAGGSAGGPNIKIKDVHEHPPEDGNPIVMFEIKAKDDDGEKVYIIITPDKIHIMPISAGGSAGGSAGG [r7_960_TrROS]”, the “folding stability dG unfold” value stood at 1 ± 0.07 kcal/mol in data set [1], 1.15 ± 0.21 kcal/mol in data set [2] and 0.927 ± 0.21 kcal/mol in data set [3].
On to “SAGGSAGGSAGGPNPDMKFEIVTIKVPPDEVPKSEPIEDPDGHNFFLHFDGNTYTIWRMDSAGGSAGGSAGG [r7_97_TrROS]”, for which the “folding stability dG unfold” value in data set [1] amounted to 0.987 ± 0.086 kcal/mol; in data set [2], 1.39 ± 0.42 kcal/mol; in data set [3], 0.933 ± 0.23 kcal/mol.
In the case of “SAGGSAGGSAGGPPGAVERGYLVVRFRVYRPEPAEPVGELTVYVRVPPPEPEEDGSFRFHSAGGSAGGSAGG [r7_959_TrMRF]”, the “folding stability dG unfold” value was determined as 1.98 ± 0.025 kcal/mol in data set [1], 2.39 ± 0.068 kcal/mol in data set [2] and 2.24 ± 0.086 kcal/mol in data set [3].
